# Test results taken from publication PMC12311796.
# Legend:
# [1] = target: T1, BRD4 N-terminal tandem bromodomain fragment (BD1-BD2) (Homo sapiens, UniProt O60885 49-460); assay: NMR; 80 mM KCl; 1:2 BRD4:G4 model; SPR: 10 mM HEPES pH 7.4, 150 mM NaCl, 50 uM EDTA, 0.005% P20, 24 C; MST: PBS, 0.05% Tween-20, 22 C; NMR: 20 mM Na-phosphate pH 7.5, 80 mM KCl, 5% D2O, 25 C; nucleosome: 20 mM Tris-HCl pH 8.0, NaCl 2 M to 250 mM; conditions: protein: recombinant; tags: N-terminal His8 (RED-tris-NTA label for MST; Ni-NTA capture for SPR); parallel 3-quartet G4; unimolecular fraction about 50% in the NMR sample
# [2] = target: T1, BRD4 N-terminal tandem bromodomain …; assay: SPR; SPR: 10 mM HEPES pH 7.4, 150 mM NaCl, 50 uM EDTA, 0.005% P20, 24 C; MST: PBS, 0.05% Tween-20, 22 C; NMR: 20 mM Na-phosphate pH 7.5, 80 mM KCl, 5% D2O, 25 C; nucleosome: 20 mM Tris-HCl pH 8.0, NaCl 2 M to 250 mM; conditions: protein: recombinant; tags: N-terminal His8 (RED-tris-NTA label for MST; Ni-NTA capture for SPR); parallel 3-quartet G4; unimolecular fraction about 50% in the NMR sample
# [3] = target: T1, BRD4 N-terminal tandem bromodomain …; assay: SPR; 1-200 uM ODN; SPR: 10 mM HEPES pH 7.4, 150 mM NaCl, 50 uM EDTA, 0.005% P20, 24 C; MST: PBS, 0.05% Tween-20, 22 C; NMR: 20 mM Na-phosphate pH 7.5, 80 mM KCl, 5% D2O, 25 C; nucleosome: 20 mM Tris-HCl pH 8.0, NaCl 2 M to 250 mM; conditions: protein: recombinant, tags: N-terminal His8 (RED-tris-NTA label for MST; Ni-NTA capture for SPR)
# [4] = target: T1, BRD4 N-terminal tandem bromodomain …; assay: SPR; no ligand; SPR: 10 mM HEPES pH 7.4, 150 mM NaCl, 50 uM EDTA, 0.005% P20, 24 C; MST: PBS, 0.05% Tween-20, 22 C; NMR: 20 mM Na-phosphate pH 7.5, 80 mM KCl, 5% D2O, 25 C; nucleosome: 20 mM Tris-HCl pH 8.0, NaCl 2 M to 250 mM; conditions: protein: recombinant; tags: N-terminal His8 (RED-tris-NTA label for MST; Ni-NTA capture for SPR); duplex flanks around G4 with opposing C-rich strand; about 50% G4 folded without PDS
binder,measurement,setting,value
GGGAGGGAGGGAGGG (structured_DNA) [G4 (SE G4)],Kd,[1],6 ± 1 µM
same,Kd,[2],5 ± 3 µM
CAATCGGATCGAATTCGATCCGATTG (structured_DNA) [ds26],binding result,[3]; hairpin,no binding
dsG4 (mixed) DNA 1: ATCACACTTGGCAGGGAGGGAGGGAGGGATGCAGCTGATCA DNA 2: TGATCAGCTGCATCCCTCCCTCCCTCCCTGCCAAGTGTGAT,Kd,[4],5 ± 3 µM
dsCntr (dsDNA) DNA 1: ATCACACTTGGCTTTCAACCAGTCTATGCTGCAGCTGATCA DNA 2: TGATCAGCTGCAGCATAGACTGGTTGAAAGCCAAGTGTGAT,binding result,[3]; blunt,no binding
CCCCCTCCCCCTCCCCCTCCCCC (structured_DNA) [iM],binding result,[3]; i-motif,no binding
